Publication PMC4996508

Biological target: Neurospora crassa importin-α (residues 75-529) (Neurospora crassa)
Experiment: ITC; importin-α (50 μM) in the cell, PAC-3 NLS peptide (500 μM) titrated from the syringe; 20°C; 20 mM Tris-HCl pH 8.0, 100 mM NaCl; single binding site model

Neurospora crassa importin-α (residues 75-529) (Neurospora crassa), sequence (G5EB89 other isoform, or with tags, fused parts or gaps): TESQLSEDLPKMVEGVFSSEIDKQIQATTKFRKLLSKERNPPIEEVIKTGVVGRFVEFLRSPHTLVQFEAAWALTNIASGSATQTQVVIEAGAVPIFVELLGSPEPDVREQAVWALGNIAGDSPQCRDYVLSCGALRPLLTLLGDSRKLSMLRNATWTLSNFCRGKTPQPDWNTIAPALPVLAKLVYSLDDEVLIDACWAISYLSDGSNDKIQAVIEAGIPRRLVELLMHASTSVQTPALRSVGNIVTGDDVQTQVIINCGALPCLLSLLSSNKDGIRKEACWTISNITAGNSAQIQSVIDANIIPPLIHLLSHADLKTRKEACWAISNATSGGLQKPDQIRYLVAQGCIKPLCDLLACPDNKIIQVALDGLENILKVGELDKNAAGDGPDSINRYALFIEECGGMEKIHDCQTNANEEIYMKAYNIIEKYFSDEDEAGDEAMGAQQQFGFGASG
PAC-3 NLS peptide, sequence (peptide): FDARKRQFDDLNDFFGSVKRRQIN

Which results are given for PAC-3 NLS peptide?
Kd: 390 nM; dH: -12.1 kcal/mol; stoichiometry N: 1
